Experimental data from patent publication US20250136674A1 (KYOTO UNIVERSITY, published 2025).

Biological target: T1, purified full-length recombinant mouse USAG-1 (mouse, UniProt Q9CQN4 24-206)
T1 construct: also called purified recombinant mouse USAG-1 protein
T1 sequence (looked up): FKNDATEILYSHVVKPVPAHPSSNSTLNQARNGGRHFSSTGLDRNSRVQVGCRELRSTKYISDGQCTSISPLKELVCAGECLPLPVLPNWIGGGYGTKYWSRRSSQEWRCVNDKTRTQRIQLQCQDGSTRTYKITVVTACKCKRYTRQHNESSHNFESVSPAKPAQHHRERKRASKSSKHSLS
Assay: BLI (Octet Red), antibody immobilised, mouse USAG-1 at 10, 30 and 100 nM, global fitting
Description: For the antibody obtained in Example 1, affinity (KD values) was determined by using a BLI method based on Octet (registered trademark) Red (manufactured by Pall ForteBio). Specifically, each antibody was immobilized on the biosensor, the purified recombinant mouse USAG-1 protein was added at three different concentrations (10 nM, 30 nM, 100 nM), and binding and dissociation curves were obtained. The affinities were calculated by subjecting the obtained curves to global fitting with an analysis program attached to the Octet device.

- Kd: 3.26 nM
B1: mouse anti-USAG-1 neutralizing antibody B48C (antibody, V domains shown)
VH: EVQLQQSGAELVRPGASVKLSCTASGFNIKDDYMHWVKQRPEQGLEWIGWIDPENGDTEYASKFQGKATITADTSSNTAYLQLSSLTSEDTAVYYCITPYYYGSSFSYWYFDVWGTGTTVTVSS
VL: DVLMTQTPLSLPVSLGDQASISCRSSQSIVHSNGNTYLEWYLQKPGQSPKLLIYKVSNRFSGVPDRFSGSGSGTDFTLKISRVEAEDLGVYYCFQGSHVPWTFGGGTKLEIKR
notes: Mouse monoclonal from a hybridoma (USAG-1 KO mouse immunised with rat USAG-1)
